Values belong to the molecule of their own block, whether it stands above or below them.
Experiments:
CLC-ck2 = test: SEC-MALS; SEC-MALS-RI, Superdex-200 Increase 10/300 GL, 1 mg/ml in 200 µl, 150 mM NaCl, 20 mM HEPES pH 7.5, 2 mM DDM
[1] = molecular target: codon-optimized chicken MLC1 with 6× His-tag (chicken); test: cross-linking; glutaraldehyde (400-fold molar excess) on protein-detergent micelles (0.5-0.9 µg protein/µl), 1, 10 or 30 min at 23°C, SDS-PAGE; cross-linking largely inhibited with 2% SDS
[2] = molecular target: the molecule itself; test: as above
[3] = molecular target: the molecule itself; test: single-molecule photobleaching (TIRFM); proteoliposomes (POPE:POPG 3:1, 0.1 mol% biotinyl CAP-PE, 0.4 µg protein/mg lipid) immobilised on a coated coverslip; distribution of GFP bleaching steps compared with binomial models, p = 0.8
[4] = molecular target: the molecule itself; test: SEC-MALS; SEC-MALS-RI, Superdex-200 Increase 10/300 GL, 1 mg/ml in 200 µl, 150 mM NaCl, 20 mM HEPES pH 7.5, 2 mM DDM

Molecule: CLC-ck2 (natural protein)
- stoichiometry N (CLC-ck2): 2

- stoichiometry N [1]: 3
Molecule: codon-optimized chicken MLC1 with 6× His-tag (natural protein)

B1: 3× Flag-tagged human MLC1 (natural protein, UniProt Q15049-1 1-377, looked up)
chain: MTQEPFREELAYDRMPTLERGRQDPASYAPDAKPSDLQLSKRLPPCFSHKTWVFSVLMGSCLLVTSGFSLYLGNVFPAEMDYLRCAAGSCIPSAIVSFTVSRRNANVIPNFQILFVSTFAVTTTCLIWFGCKLVLNPSAININFNLILLLLLELLMAATVIIAARSSEEDCKKKKGSMSDSANILDEVPFPARVLKSYSVVEVIAGISAVLGGIIALNVDDSVSGPHLSVTFFWILVACFPSAIASHVAAECPSKCLVEVLIAISSLTSPLLFTASGYLSFSIMRIVEMFKDYPPAIKPSYDVLLLLLLLVLLLQAGLNTGTAIQCVRFKVSARLQGASWDTQNGPQERLAGEVARSPLKEFDKEKAWRAVVVQMAQ
notes: human MLC1 (megalencephalic leukoencephalopathy with subcortical cysts protein 1), cDNA NM_015166.3 from GenScript; The predicted mass of the tagged monomer (approx. 44 kDa) fits the whole protein; also called 3× Flag-hMLC1; hMLC1; not shown: 3× Flag, N-terminal, kept
- stoichiometry N [2]: 3

B2: 3× Flag-tagged hMLC1-GFP (natural protein, human, UniProt Q15049-1 1-377, looked up)
chain: B1 chain
notes: human MLC1, cDNA NM_015166.3; probably as for 3× Flag-hMLC1 (HEK293S GnTI-); also called 3× F-hMLC1-G; 3× F-hMLC1-GFP; source: reconstituted into POPE:POPG proteoliposomes; not shown: 3× Flag, N-terminal, kept; GFP, C-terminal, kept
- stoichiometry N [3]: 3

B3: CLC-ec1 (natural protein, UniProt P37019 1-473, looked up)
chain: MKTDTPSLETPQAARLRRRQLIRQLLERDKTPLAILFMAAVVGTLVGLAAVAFDKGVAWLQNQRMGALVHTADNYPLLLTVAFLCSAVLAMFGYFLVRKYAPEAGGSGIPEIEGALEDQRPVRWWRVLPVKFFGGLGTLGGGMVLGREGPTVQIGGNIGRMVLDIFRLKGDEARHTLLATGAAAGLAAAFNAPLAGILFIIEEMRPQFRYTLISIKAVFIGVIMSTIMYRIFNHEVALIDVGKLSDAPLNTLWLYLILGIIFGIFGPIFNKWVLGMQDLLHRVHGGNITKWVLMGGAIGGLCGLLGFVAPATSGGGFNLIPIATAGNFSMGMLVFIFVARVITTLLCFSSGAPGGIFAPMLALGTVLGTAFGMVAVELFPQYHLEAGTFAIAGMGALLAASIRAPLTGIILVLEMTDNYQLILPMIITGLGATLLAQFTGGKPLYSAILARTLAKQEAEQLARSKAASASENT
notes: CLC-ec1, control membrane protein, approximately 100 kDa as a dimer; also called CLC-ec1 dimer
- stoichiometry N [4]: 2

From PMC8633789, “Transmembrane topology and oligomeric nature of an astrocytic membrane protein, MLC1” (Open Biology, 2021)
